We go through 9 molecules from PMC10266731 (Science Advances, 2023).

Like-named read-outs stand apart in the source and are kept apart here.

For series [1], the system named is propionyl-CoA synthetase (Pcs).
Substrate in series [2]: O=CCC(=O)O
In words: malonic semialdehyde made by McrC. The format is biochemical, Escherichia coli. As to conditions: L-glutamate co-substrate, NH4Cl.

Substrate in series [3]: N[C@@H](CCC(=O)O)C(=O)O
Put plainly: malonic semialdehyde made by McrC. Type of series: biochemical, Escherichia coli. To be noted: malonic semialdehyde co-substrate, NH4Cl.

Substrate in series [4]: CC(C)(COP(=O)(O)OP(=O)(O)OC[C@H]1O[C@@H](n2cnc3c(N)ncnc32)[C@H](O)[C@@H]1OP(=O)(O)O)[C@@H](O)C(=O)NCCC(=O)NCCSC(=O)CCC(=O)O
Put plainly: purified protein.

Substrate in series [5]: NC(=O)C1=CN([C@@H]2O[C@H](COP(=O)(O)OP(=O)(O)OC[C@H]3O[C@@H](n4cnc5c(N)ncnc54)[C@H](OP(=O)(O)O)[C@@H]3O)[C@@H](O)[C@H]2O)C=CC1
In words: purified protein. To be noted: acrylyl-CoA co-substrate; varied: cofactor.

Substrate in series [6]: C=CC(=O)SCCNC(=O)CCNC(=O)[C@H](O)C(C)(C)COP(=O)(O)OP(=O)(O)OC[C@H]1O[C@@H](n2cnc3c(N)ncnc32)[C@H](O)[C@@H]1OP(=O)(O)O
Put plainly: purified protein. As to conditions: NADPH co-substrate.

Substrate in series [7]: CC(C)(COP(=O)(O)OP(=O)(O)OC[C@H]1O[C@@H](n2cnc3c(N)ncnc32)[C@H](O)[C@@H]1OP(=O)(O)O)[C@@H](O)C(=O)NCCC(=O)NCCSC(=O)CCN
In words: purified protein. To be noted: NADPH, NaHCO3, excess Ccr.

Substrate in series [8]: CC(C)(COP(=O)(O)OP(=O)(O)OC[C@H]1O[C@@H](n2cnc3c(N)ncnc32)[C@H](O)[C@@H]1OP(=O)(O)O)[C@@H](O)C(=O)NCCC(=O)NCCSC(=O)/C=C/C(=O)O
In words: purified protein.

Substrate in series [9]: O=C(O)C[C@H](O)C(=O)O
Put plainly: purified protein. To be noted: succinyl-CoA co-substrate.

Substrate in series [10]: CC(C)(COP(=O)(O)OP(=O)(O)OC[C@H]1O[C@@H](n2cnc3c(N)ncnc32)[C@H](O)[C@@H]1OP(=O)(O)O)[C@@H](O)C(=O)NCCC(=O)NCCSC(=O)CC(=O)O
Put plainly: purified protein. As to conditions: NADPH co-substrate; full-length Mcr assumed (McrC also made).

Consider `O=C(O)CCO` [3-hydroxypropionate], for which, in [1] (read-out: app. Km, ATP, NADPH co-substrates), the Km amounted to 85 µM.

For the molecule `Nc1ncnc2c1ncn2[C@@H]1O[C@H](COP(=O)(O)OP(=O)(O)OP(=O)(O)O)[C@@H](O)[C@H]1O` [ATP], in series [1] (read-out: app. Km, 3-hydroxypropionate, NADPH co-substrates), the Km came out at 10 µM.

B1: 4-aminobutyrate-2-oxoglutarate transaminase (GabT) (Escherichia coli K-12) (protein)
chain: MNSNKELMQRRSQAIPRGVGQIHPIFADRAENCRVWDVEGREYLDFAGGIAVLNTGHLHPKVVAAVEAQLKKLSHTCFQVLAYEPYLELCEIMNQKVPGDFAKKTLLVTTGSEAVENAVKIARAATKRSGTIAFSGAYHGRTHYTLALTGKVNPYSAGMGLMPGHVYRALYPCPLHGISEDDAIASIHRIFKNDAAPEDIAAIVIEPVQGEGGFYASSPAFMQRLRALCDEHGIMLIADEVQSGAGRTGTLFAMEQMGVAPDLTTFAKSIAGGFPLAGVTGRAEVMDAVAPGGLGGTYAGNPIACVAALEVLKVFEQENLLQKANDLGQKLKDGLLAIAEKHPEIGDVRGLGAMIAIELFEDGDHNKPDAKLTAEIVARARDKGLILLSCGPYYNVLRILVPLTIEDAQIRQGLEIISQCFDEAKQ
In the case of B1, the Michaelis-Menten constant (Km) in series [2] was determined as 98 µM; in series [3], 7 µM.

B2: (2S)-methylsuccinyl-CoA dehydrogenase (PmMcd) (Pseudomonas migulae) (protein)
chain: MLPITAADDVQGLLLQLRGLLEQAISALASRCTKGRQLDAELLDLMQVPTFELAWASAELLAAERSLQAIDAGTSSVDRRLILVFAVEAITLVHSRLEAIYAELDLADGTLHAIAADQKLRALRRSVLSSTALHDSARLMVERPEQIGQVAMGDELSMIEDQFRRFAADTVAPLAEHIHREDLIIPDSLLAALRDMGVFGLSIPERYGGSAPDDQEDPLTMIVVTEALSQASLAAAGSLITRPEILSRALLSGGTESQKQHWLARLAVGDPLCAIAITEPDYGSDVAGLTLRGTPCEGGWRLNGAKTWCTFAGKAGVLMVVTRTNPDKSLGHRGLSLLLAEKPSYDGHEFDFRQPGGGSLTGRAIPTIGYRGMHSFDLSFEDFFVPDGNVIGEAQGLGKGFYHTMAGMTGGRMQTAGRASGVMRAALLAGLRYATERKVFGSPLLDYPLTGAKLTKMAARYVASRYLTYSVGRMLAQGEGRMEASLVKLFACRSAELVTRESLQIHGGMGYAEEVAVSRYFVDARVLSIFEGAEETLALKVIGRSLLEAALKAEAA
For the molecule B2, the Michaelis-Menten constant (Km) in series [4] (ferrocenium electron acceptor) is 78 µM.

B3: Ccr (Methylorubrum extorquens AM1) (protein)
chain: MAASAAPAWTGQTAEAKDLYELGEIPPLGHVPAKMYAWAIRRERHGPPEQSHQLEVLPVWEIGDDEVLVYVMAAGVNYNGVWAGLGEPISPFDVHKGEYHIAGSDASGIVWKVGAKVKRWKVGDEVIVHCNQDDGDDEECNGGDPMFSPTQRIWGYETGDGSFAQFCRVQSRQLMARPKHLTWEEAACYTLTLATAYRMLFGHAPHTVRPGQNVLIWGASGGLGVFGVQLCAASGANAIAVISDESKRDYVMSLGAKGVINRKDFDCWGQLPTVNSPEYNTWLKEARKFGKAIWDITGKGNDVDIVFEHPGEATFPVSTLVAKRGGMIVFCAGTTGFNITFDARYVWMRQKRIQGSHFAHLKQASAANQFVMDRRVDPCMSEVFPWDKIPAAHTKMWKNQHPPGNMAVLVNSTRAGLRTVEDVIEAGPLKAM
As to B3, the figures for the Km in series [5] and in series [6] were 0.21 mM and 0.78 mM, respectively.

B4: β-alanyl-CoA:ammonia lyase (βCal) (Allostigmatella aurantiaca DW4/3-1) (protein)
chain: MSTKAIIRLRMSSHDAHYGGNLVDGARMLGLFGDVATELCIRHDGDEGLFRAYDSVEFLAPVYAGDFIEAEGEILSEGNTSRKMRFEARKVIRPRTDVNDSAADLLSEPVVVCRATGTCVVPKDKQRIPR
Regarding B4, in series [7], the Michaelis-Menten constant (Km) turned out to be 70 µM.

B5: mesaconyl-CoA hydratase (Mch) (Cereibacter sphaeroides 2.4.1) (protein)
chain: MKTNAGRFFEDYRLGETIAHAVPRTVSGGERALYHALYPARHALSSSDEFARACGLPAAPVDELMAFHLVFGKTVPDISLNAVANLGYAEGRWLKPVFPGDTLRAESTVIGLKENSNGASGVVWVRTRGLNQQGEAVLSYVRWVMVRKRDTAAPAPAPTVPELAGSVAASDLVIPEGLSFTDYDLTLAGEPHRWGDYAVGEKIDHVDGVTVEESEHMLATRLWQNTAKVHFDATNRPDGRRLIYGGHVISLARTLSFNGLANAQMIVALNAGAHANPCFAGDTVRAWSEVLDKAETADPGVGALRLRLVAMKHGTEPFVTRSEDGKYLPGVLLDLDYWALVPR
On to B5, for which, in series [8], the Km turned out to be 280 µM.

B6: succinyl-CoA:L-malate CoA transferase (Smt) (Chloroflexus aurantiacus) (protein)
chain 1: MPPTGEEPSGHAESKPPASDPMSTPGTGQEQLPLSGIRVIDVGNFLAGPYAASILGEFGAEVLKIEHPLGGDPMRRFGTATARHDATLAWLSEARNRKSVTIDLRQQEGVALFLKLVAKSDILIENFRPGTMEEWGLSWPVLQATNPGLIMLRVSGYGQTGPYRRRSGFAHIAHAFSGLSYLAGFPGETPVLPGTAPLGDYIASLFGAIGILIALRHKEQTGRGQLIDVGIYEAVFRILDEIAPAYGLFGKIREREGAGSFIAVPHGHFRSKDGKWVAIACTTDKMFERLAEAMERPELASPELYGDQRKRLAARDIVNQITIEWVGSLTRDEVMRRCLEKEVPVGPLNSIADMFNDEHFLARGNFACIEAEGIGEVVVPNVIPRLSETPGRVTNLGPPLGNATYEVLRELLDISAEEIKRLRSRKII
chain 2: MDGTTTTLPLAGIRVIDAATVIAAPFCATLLGEFGADVLKVEHPIGGDALRRFGTPTARGDTLTWLSESRNKRSVTLNLQHPEGARVFKELIAHSDVLCENFRPGTLEKWGLGWDVLSKINPRLIMLRVTGYGQTGPYRDRPGFARIAHAVGGIAYLAGMPKGTPVTPGSTTLADYMTGLYGCIGVLLALRHREQTGRGQYIDAALYESVFRCSDELVPAYGMYRKVRERHGSHYNEFACPHGHFQTKDGKWVAISCATDKLFARLANAMGRPELASSSVYGDQKVRLAHASDVNEIVRDWCSSLTRAEVLERCYATATPAAPLNDIADFFGDRHVHARRNLVAIDAEDLGETLIMPNVVPKLSETPGSIRSLGPKLGEHTEEVLKEILGMCDEQINDLRSKRVI
For the molecule B6, the Km in [4] (malate co-substrate) came out at 960 µM; in [9], 0.91 mM.

B7: Malonyl-CoA reductase (Mcr) (Chloroflexus aurantiacus J-10-fl) (protein)
chain: MSGTGRLAGKIALITGGAGNIGSELTRRFLAEGATVIISGRNRAKLTALAERMQAEAGVPAKRIDLEVMDGSDPVAVRAGIEAIVARHGQIDILVNNAGSAGAQRRLAEIPLTEAELGPGAEETLHASIANLLGMGWHLMRIAAPHMPVGSAVINVSTIFSRAEYYGRIPYVTPKAALNALSQLAARELGARGIRVNTIFPGPIESDRIRTVFQRMDQLKGRPEGDTAHHFLNTMRLCRANDQGALERRFPSVGDVADAAVFLASAESAALSGETIEVTHGMELPACSETSLLARTDLRTIDASGRTTLICAGDQIEEVMALTGMLRTCGSEVIIGFRSAAALAQFEQAVNESRRLAGADFTPPIALPLDPRDPATIDAVFDWAGENTGGIHAAVILPATSHEPAPCVIEVDDERVLNFLADEITGTIVIASRLARYWQSQRLTPGARARGPRVIFLSNGADQNGNVYGRIQSAAIGQLIRVWRHEAELDYQRASAAGDHVLPPVWANQIVRFANRSLEGLEFACAWTAQLLHSQRHINEITLNIPANISATTGARSASVGWAESLIGLHLGKVALITGGSAGIGGQIGRLLALSGARVMLAARDRHKLEQMQAMIQSELAEVGYTDVEDRVHIAPGCDVSSEAQLADLVERTLSAFGTVDYLINNAGIAGVEEMVIDMPVEGWRHTLFANLISNYSLMRKLAPLMKKQGSGYILNVSSYFGGEKDAAIPYPNRADYAVSKAGQRAMAEVFARFLGPEIQINAIAPGPVEGDRLRGTGERPGLFARRARLILENKRLNELHAALIAAARTDERSMHELVELLLPNDVAALEQNPAAPTALRELARRFRSEGDPAASSSSALLNRSIAAKLLARLHNGGYVLPADIFANLPNPPDPFFTRAQIDREARKVRDGIMGMLYLQRMPTEFDVAMATVYYLADRNVSGETFHPSGGLRYERTPTGGELFGLPSPERLAELVGSTVYLIGEHLTEHLNLLARAYLERYGARQVVMIVETETGAETMRRLLHDHVEAGRLMTIVAGDQIEAAIDQAITRYGRPGPVVCTPFRPLPTVPLVGRKDSDWSTVLSEAEFAELCEHQLTHHFRVARKIALSDGASLALVTPETTATSTTEQFALANFIKTTLHAFTATIGVESERTAQRILINQVDLTRRARAEEPRDPHERQQELERFIEAVLLVTAPLPPEADTRYAGRIHRGRAITV
Turning to B7, the Km in [10] was found to be 1.3 µM.

One may read the Km as the concentration of substrate that gives half-maximal velocity.
